Patent publication US20180171001A1 (ROCKEFELLER UNIVERSITY, published 2018)

How the values were obtained:
Test in all cases: cell-based or functional assay
Tro11 = Tro11 (Human immunodeficiency virus 1)
6535_3 = 6535_3 (Human immunodeficiency virus 1)
SC4226618 = SC4226618 (Human immunodeficiency virus 1)

B1: chimeric IgG: 8ANC195 HC paired with mature LC with CDRL2 reverted to germline (antibody, V domains shown)
VH: QIHLVQSGTEVKKPGSSVTVSCKAYGVNTFGLYAVNWVRQAPGQSLEYIGQIWRWKSSASHHFRGRVLISAVDLTGSSPPISSLEIKNLTSDDTAVYFCTTTSTYDKWSGLHHDGVMAFSSWGQGTLISVSA
VL: DIQMTQSPSTLSASIGDTVRISCRASQSITGNWVAWYQQRPGKAPRLLIYKASALLGGVPSRFSGSAAGTDFTLTIGNLQAEDFGTFYCQQYDTYPGTFGQGTKVEVK
IC50 (fold change over 8ANC195 IgG), pseudovirus neutralization [panel B] (Tro11): 62 fold
IC50 (fold change over 8ANC195 IgG), pseudovirus neutralization [panel B] (6535_3): 31 fold
IC50 (fold change over 8ANC195 IgG), pseudovirus neutralization [panel B] (SC4226618): 99 fold
